The values that follow come from paper PMC11921375, “Phenanthrene degradation by a flavoprotein monooxygenase from Phanerodontia chrysosporium” (Applied and Environmental Microbiology, 2025).

By Km is commonly meant the concentration of substrate that gives half-maximal velocity. The term kcat denotes the maximal rate divided by the concentration of active sites. What is called kcat/Km is the turnover number divided by the Michaelis constant.

Data set [1] concerns T1, FPMO11 (flavoprotein monooxygenase 11).
T1 construct: full-length, C-terminal 6xHis, pET21a, E. coli BL21; FAD flavoprotein
Briefly: NAD(P)H oxidation at […] nm, initial velocity. The format is biochemical, Phanerodontia chrysosporium. To be noted: apparent, 50 mM HEPES-NaOH pH 7.0, 30°C.

For data set [2], the system named is T2, IDD1 (intradiol dioxygenase 1).
T2 construct: recombinant, E. coli
Briefly: O2 consumption, Clark electrode; Michaelis-Menten fit. The format is biochemical, Phanerodontia chrysosporium. To be noted: apparent; 50 mM Tris-HCl pH 8.0, air-saturated, superoxide dismutase added.

The subject of data set [3] is T3, IDD2 (intradiol dioxygenase 2).
T3 construct: recombinant, E. coli
The description is as above. Type of data set: biochemical, Phanerodontia chrysosporium. The following applies: apparent; 50 mM Tris-HCl pH 8.0, air-saturated, superoxide dismutase added.

In data set [4] the target is T4, NahG (salicylate 1-monooxygenase) (Pseudomonas putida, UniProt P23262).
T4 construct: full-length synthetic gene, C-terminal 6xHis, pET21a, E. coli BL21
T4 sequence (P23262 2-434): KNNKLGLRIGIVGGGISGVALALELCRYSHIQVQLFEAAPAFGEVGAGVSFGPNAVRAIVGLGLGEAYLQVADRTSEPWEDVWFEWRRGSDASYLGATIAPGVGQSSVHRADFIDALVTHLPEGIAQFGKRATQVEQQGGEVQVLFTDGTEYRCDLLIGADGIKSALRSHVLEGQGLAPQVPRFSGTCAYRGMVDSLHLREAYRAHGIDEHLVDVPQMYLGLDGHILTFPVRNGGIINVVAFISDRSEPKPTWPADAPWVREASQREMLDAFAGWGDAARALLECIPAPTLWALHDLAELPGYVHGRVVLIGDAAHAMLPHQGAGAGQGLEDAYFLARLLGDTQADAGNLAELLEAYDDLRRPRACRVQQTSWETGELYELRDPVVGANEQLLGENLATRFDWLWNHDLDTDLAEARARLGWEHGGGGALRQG
The experiment in a line: NAD(P)H oxidation at […] nm, initial velocity. To be noted: apparent; co-substrate NADH varied, aromatic substrate not stated; 50 mM HEPES pH 8.0, 30°C. Type of data set: biochemical.

Substrate in data set [5]: O=C(O)c1ccc(O)cc1O
The experiment in a line: purified protein. The format is biochemical, Pseudomonas putida. The following applies: apparent, NAD(P)H co-substrate (NADH in results, NADPH in methods), 50 mM HEPES pH 8.0, 30°C.

Substrate in data set [6]: NC(=O)C1=CN([C@@H]2O[C@H](COP(=O)(O)OP(=O)(O)OC[C@H]3O[C@@H](n4cnc5c(N)ncnc54)[C@H](OP(=O)(O)O)[C@@H]3O)[C@@H](O)[C@H]2O)C=CC1
Briefly: purified protein. The format is biochemical, Pseudomonas putida. The following applies: apparent, co-substrate NADPH varied, aromatic substrate not stated, 50 mM HEPES pH 8.0, 30°C, varied: cofactor.

Substrate in data set [7]: O=C(O)c1ccc(Cl)cc1O
Briefly: purified protein. The following applies: apparent, NAD(P)H co-substrate (NADH in results, NADPH in methods), 50 mM HEPES pH 8.0, 30°C. The format is biochemical, Pseudomonas putida.

Substrate in data set [8]: O=C(O)c1cccc(O)c1O
Briefly: purified protein. Type of data set: biochemical, Pseudomonas putida. To be noted: apparent, NAD(P)H co-substrate (NADH in results, NADPH in methods), 50 mM HEPES pH 8.0, 30°C.

Substrate in data set [9]: O=C(O)c1cc(O)ccc1O
Briefly: purified protein. The following applies: apparent, NAD(P)H co-substrate (NADH in results, NADPH in methods), 50 mM HEPES pH 8.0, 30°C.

As for `O=C(O)c1cccc(-c2ccccc2)c1O` [2H3PB], the Km in data set [1] (NADPH co-substrate) amounted to 290 ± 67 µM.
Still for that read-out and setting: the figure for `O=C(O)c1ccc(Cl)cc1O` [4CSA] is 120 ± 28 µM; for `O=C(O)c1ccc2ccccc2c1O` [1H2N] it is 100 ± 15 µM.
`NC(=O)C1=CN([C@@H]2O[C@H](COP(=O)(O)OP(=O)(O)OC[C@H]3O[C@@H](n4cnc5c(N)ncnc54)[C@H](OP(=O)(O)O)[C@@H]3O)[C@@H](O)[C@H]2O)C=CC1` [NADPH]: the Km in [1] (co-substrate NADPH varied, aromatic substrate not stated) is 150 ± 37 µM.
With `O=C(O)c1cc(O)ccc1O` [GA], in data set [1] (NADPH co-substrate), the Km stood at 48 ± 45 µM.
Consider `Oc1ccc2ccccc2c1O` [1,2DHN], for which the figures for the Km in data set [2] and in [3] were 480 ± 18 µM and 520 ± 180 µM, respectively.
In the case of `NC(=O)C1=CN([C@@H]2O[C@H](COP(=O)(O)OP(=O)(O)OC[C@H]3O[C@@H](n4cnc5c(N)ncnc54)[C@H](O)[C@@H]3O)[C@@H](O)[C@H]2O)C=CC1` [NADH], the Km in data set [4] came to 27 ± 10 µM; in data set [1] (co-substrate NADH varied, aromatic substrate not stated), 170 ± 60 µM.
Regarding `O=C(O)c1cccc(O)c1O` [2,3DHB], the Km in data set [1] (NADPH co-substrate) is 67 ± 1.8 µM.
Same read-out and setting: with `O=C(O)c1ccccc1O` [SA] the figure was 30 ± 34 µM; with `O=C(O)c1c(O)ccc2ccccc12` [2H1N], 110 ± 25 µM.
Still for that read-out and setting: the figure for `O=C(O)c1ccc(O)cc1O` [2,4DHB] is 82 ± 9.7 µM; for `O=C(O)c1c(O)cccc1-c1ccccc1` [2H6PB] it is 320 ± 84 µM.

B1: NahG (salicylate 1-monooxygenase) (Pseudomonas putida) (protein)
chain: KNNKLGLRIGIVGGGISGVALALELCRYSHIQVQLFEAAPAFGEVGAGVSFGPNAVRAIVGLGLGEAYLQVADRTSEPWEDVWFEWRRGSDASYLGATIAPGVGQSSVHRADFIDALVTHLPEGIAQFGKRATQVEQQGGEVQVLFTDGTEYRCDLLIGADGIKSALRSHVLEGQGLAPQVPRFSGTCAYRGMVDSLHLREAYRAHGIDEHLVDVPQMYLGLDGHILTFPVRNGGIINVVAFISDRSEPKPTWPADAPWVREASQREMLDAFAGWGDAARALLECIPAPTLWALHDLAELPGYVHGRVVLIGDAAHAMLPHQGAGAGQGLEDAYFLARLLGDTQADAGNLAELLEAYDDLRRPRACRVQQTSWETGELYELRDPVVGANEQLLGENLATRFDWLWNHDLDTDLAEARARLGWEHGGGGALRQG
notes: full-length synthetic gene, C-terminal 6xHis, pET21a, E. coli BL21
As to B1, the Km in “purified protein [5]” worked out at 70 ± 15 µM; in “purified protein [6]”, 69 ± 17 µM; in “purified protein [7]” it was 51 ± 19 µM; in the data set “purified protein [8]”, 120 ± 15 µM; in the data set “purified protein [9]” it was 110 ± 30 µM. Also, the kcat in “purified protein [5]” amounted to 5.17 ± 0.467 s⁻¹; in the data set “purified protein [6]”, 1.33 ± 0.583 s⁻¹; in “purified protein [7]” it was 0.917 ± 0.4 s⁻¹; in the data set “purified protein [8]”, 5.5 ± 0.567 s⁻¹; in “purified protein [9]”, 7 s⁻¹. Besides, the kcat/Km was 73300 M⁻¹ s⁻¹ in “purified protein [5]”; 20000 M⁻¹ s⁻¹ in “purified protein [6]”; 18300 M⁻¹ s⁻¹ in the data set “purified protein [7]”; 45000 M⁻¹ s⁻¹ in “purified protein [8]”; 61700 M⁻¹ s⁻¹ in “purified protein [9]”.
